Where a chain is given by its changes, count along the chain named. Names may count otherwise.
B1: Mycobacterium tuberculosis isocitrate lyase (MtbICL) (enzyme)
chain: MSVVGTPKSAEQIQQEWDTNPRWKDVTRTYSAEDVVALQGSVVEEHTLARRGAEVLWEQLHDLEWVNALGALTGNMAVQQVRAGLKAIYLSGWQVAGDANLSGHTYPDQSLYPANSVPQVVRRINNALQRADQIAKIEGDTSVENWLAPIVADGEAGFGGALNVYELQKALIAAGVAGSHWEDQLASEKKCGHLGGKVLIPTQQHIRTLTSARLAADVADVPTVVIARTDAEAATLITSDVDERDQPFITGERTREGFYRTKNGIEPCIARAKAYAPFADLIWMETGTPDLEAARQFSEAVKAEYPDQMLAYNCSPSFNWKKHLDDATIAKFQKELAAMGFKFQFITLAGFHALNYSMFDLAYGYAQNQMSAYVELQEREFAAEERGYTATKHQREVGAGYFDRIATTVDPNSSTTALTGSTEEGQFH
notes: Isocitrate lyase of Mycobacterium tuberculosis, full-length, 428 amino acids per monomer; also called native MtbICL; native protein
B2: MtbICL F345A mutant (MtbICL_(F345A)) (enzyme)
chain: B1 chain with F345A
notes: A small fraction formed aggregate on SEC; also called mutant protein

Molecular target: the molecule itself
Assay: SEC; Superdex 200 10/300 GL on AKTA-FPLC, 50 mM phosphate buffer pH 8.0, 100 mM NaCl, 0.5 mL/min, 25 °C; mass read against standard markers (ferritin, catalase, aldolase, ovalbumin)

Row | Protein | stoichiometry N
1 | B1 | 4
2 | B2 | 4

— PMC5430663, “Distant Phe345 mutation compromises the stability and activity of Mycobacterium tuberculosis isocitrate lyase by modulating its structural flexibility” (Scientific Reports, 2017)
